The data set is described as follows: yeast display, Sf9 membrane polyspecificity reagent, FACS + sequencing; frameworks hold sequencing errors. The procedure, abridged: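 Galactose-induced (36–48 hours) yeast carrying a synthetic nanobody display library were exposed to 10% biotinylated, detergent-solubilized Sf9 membrane reagent at 4 °C for 1 hour. FACS followed streptavidin microbead enrichment, using low and high (top ~1%) gates for expression (anti-HA) and reagent binding (streptavidin). Colony PCR, MiSeq 2 × 250 sequencing and CDR-length filtering followed. Labels for polyreactivity reflect the gate of origin.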
For the sequence “QVHLVESGGGLVKAGGSLRLSCGASGSTFERYAMGWYRQAPGKERELVAAINWSGGGTYYADSVKGRFTSSRDNAKNTVYLQMNSLNPEDTAVYYCAGDSGTVVFSLWWYEYYYWGQATQVTVSS”, the “polyreactivity (PSR sort gate)” value is listed as “low polyreactivity”.

In the case of “QVHLVESGGGLVKAGGSLRLSCPASGFIFTLYAMGWYRQPPGKERELVASIRGSGGNTYYADSVKGRFTISRDNAKNTVYLQMNSLKPEDTAVYYCAAGYPYYYWTPYYYWGQGTQVTVSS”, the “polyreactivity (PSR sort gate)” value was “high polyreactivity”.

As for “QVHLVESGGGLVLAGGSLRLSFAASGSTFDSYAMRCYRQQPGKQREFVAVINSGGSTNYADSVNGRFTISRDYSKNTVYLQMNSLKPEDTAVYYCAAEERYRWHYGGWGYWYDYWGQGTQVTVSS”, the “polyreactivity (PSR sort gate)” value is recorded as “low polyreactivity”.

“QVHLVESGGGLVMAVGSLRLSCAASGFTFVGYAMGWYRQAPGKERELVATITRVGSTNYADSVKGRFTISRDNAKNTVYLQMNSLKPEDTAVYYCNTRRVYGHGKSPYDSWGQGTQVTVSS”: the “polyreactivity (PSR sort gate)” value was “low polyreactivity”.

Turning to “QVHLVESGGGLVQAGGILRLSCAASGFTFIHYGMGWYRQAPGKERELVAAISSRGGRTYYADSVKGRFTISRDNAKNTVYLQMNSLKPEDTAVYYCNRDYAVISYGEYDSWGQGTEVTVSS”, the “polyreactivity (PSR sort gate)” value was “high polyreactivity”.

Consider “QVHLVESGGGLVQAGGILRLSCAASGRTFRYYAMGWYRQAPGKERELVAAISSGGSTNYADSVKGRFTISRDNAKNTVYLQMNSLKPEDSAVYYCADLWSGNKFNYWGQGTQVTVSS”, for which the “polyreactivity (PSR sort gate)” value is given as “low polyreactivity”.

In the case of “QVHLVESGGGLVQAGGILRLSCAASGSTFGYYAMGWYRQAPGKERELVAAITWSGDSTYADSVKGRFTISRDNAKNTVYLQMNSLKPEDTAVYYCARRGFLGHWPRPSYDYWGQGTQVTVSS”, the “polyreactivity (PSR sort gate)” value is “low polyreactivity”.

“QVHLVESGGGLVQAGGRLRLSCAASALTYAYYAMGRYREAPRKERELVAAITTGGTTNYADSVKGRFTISRDNAKNTVYLQMNSLKTEDTAVYYCARLYRSGYEYWGQGTQVTVSS”: the “polyreactivity (PSR sort gate)” value is “low polyreactivity”.

As for “QVHLVESGGGLVQAGGRLRLSCAASGFIFWSNAMRWYRQAPGKERELVAAITWNGGDTYYADSVKGRFTISRDNAKNTVYLQMNSLKPEDTAVFYCAAVPSRRARYDYWGQGTQVTVSS”, the “polyreactivity (PSR sort gate)” value is “low polyreactivity”.

Regarding “QVHLVESGGGLVQAGGRLRLSCAASGGTFYYIAMGWYRQAPGKERELVAAISWSGVSTSYADTVKGRFTISRDNEKNTVYLQMNSLKPEDTAVYYCAAGPFYYTGFEGDYWGQGTQVTVSS”, the “polyreactivity (PSR sort gate)” value is “high polyreactivity”.

Consider “QVHLVESGGGLVQAGGRLRLSCAASGSIFDDYAMGWYRQAPGKERELVAAITSGGSTYYADSVKGRFTISRDNAKNNVYLEMNSLKPEDTAVYYRATRYHWSSSFAPVGAYGYWGQGSQVTVSS”, for which the “polyreactivity (PSR sort gate)” value was “low polyreactivity”.

“QVHLVESGGGLVQAGGSHRLSCAASGFIFKVNAMGWYRQAPGKERELVAAITGSGGSTYYADSVKGRFTISRDNAKNTVFLQMISLKPEDTAVYYCISLYDGYSTRLGFWGHGTQVTVSS”: the “polyreactivity (PSR sort gate)” value is listed as “high polyreactivity”.

Consider “QVHLVESGGGLVQAGGSHRLSCAAYGRIFRANAKGWYRQAPGKERELVASITYSGGSTYYADSVKGRFTISRDNAKNTVYLQMNSLKPEDTAVYYCARAGISSGGYYYWGQGTQVTVSS”, for which the “polyreactivity (PSR sort gate)” value is on record as “low polyreactivity”.

In the case of “QVHLVESGGGLVQAGGSIRLSCAASGLIFYPYAMGWYRKAHGKEREFVAAITWSGGSTRYADSVKGRFTISLDNAKNTVYLQMNSLKPEDTAVYYCAARYIWWYDYTYTGLDYWGQGTQVSVSS”, the “polyreactivity (PSR sort gate)” value is reported as “high polyreactivity”.

As for “QVHLVESGGGLVQAGGSLLISCSASGSTFGTNAMGWYRQAPGKERDLVASITWSGGNTNYADSVKGRFTISRDNAKNTVYLQKKSMKPADTAVYYCAAEVFISYGVGGYYSDMDYWGQVTQVTVSS”, the “polyreactivity (PSR sort gate)” value is recorded as “low polyreactivity”.

With “QVHLVESGGGLVQAGGSLLLSCAASGSIFYFYAMGWYRQAPGKERELVAGITWRGGRTYYADSVKGRFTISRDNAKNTVDLQMIILKPEDTAVYYCAARFWSTYGYDSWGQGTQVTVSS”, the “polyreactivity (PSR sort gate)” value is listed as “high polyreactivity”.

“QVHLVESGGGLVQAGGSLLLSCDASGSIIKQYAMGWYRQAPGKERELVASIRWRDGSTYYADSVKGRFTISRDNAMNTVYLQMNSLKPEDTAVYYCAAYYCVWRYKYYYWGQGTQVTVSS”: the “polyreactivity (PSR sort gate)” value is given as “high polyreactivity”.

As for “QVHLVESGGGLVQAGGSLLLSCSASGSIFTFNAMGWYRQAPGKERELVAAISSGGNTYYADSEKGRFTISRDNAKNSVYLQMNSLKPEDTAVYYCAAVRRTDGDGKYYYWGQGTEVTVSS”, the “polyreactivity (PSR sort gate)” value is “high polyreactivity”.

In the case of “QVHLVESGGGLVQAGGSLPLSCAATGRTFVYYAMGWYIQAPGKERELVAAITWTGGSTYYADSVKGRFTISRDTAKNTVYLHMNSMKPEDTAVYYFKAAVFRYRNEYDYWGQGTQVTVSS”, the “polyreactivity (PSR sort gate)” value is “low polyreactivity”.

On to “QVHLVESGGGLVQAGGSLRFSCAASGSTFDDYAMGWYRQAPGKERELVAAISRSDGSTSYADSVKGRFTISRDNAKNTVYLQMNSLKPEDTAVYYCAADPVFKDDLWPVRVRVDYWGQGTQVTVSS”, for which the “polyreactivity (PSR sort gate)” value is “low polyreactivity”.

Turning to “QVHLVESGGGLVQAGGSLRISCAASGRIFRRYAMGWYRQAPGKERELVAAITRSGGSTYYADSVKGRFTISRDNAKNTVYLQMNSLKPEDTAVYYCNAPSSLGTDYDYWGQGTQVTVSS”, the “polyreactivity (PSR sort gate)” value is reported as “high polyreactivity”.

With “QVHLVESGGGLVQAGGSLRISCAASGSIFFPYAMGGYRQAPGKERELVAAISYSGTSTYYAASVKGRFTISRDNAKNTVYLQMNSLKPVDTAVYYCAAYSRYYASYDYWGQGTQVTVSS”, the “polyreactivity (PSR sort gate)” value is listed as “high polyreactivity”.

Turning to “QVHLVESGGGLVQAGGSLRLCCAASGRIFDHNTKGWYRQAPGKEMEFVAAITVSAGTTYYADSVKGRFTISSDNAKNTVYLQMNSLKPEDTAVYYCAAYYVYSYWDWGDYWGQGTQVTVSS”, the “polyreactivity (PSR sort gate)” value is “low polyreactivity”.

Take “QVHLVESGGGLVQAGGSLRLICAASGGTLWVNTMGWYRQAPGKERELVAAISRRGGSTYYADSVKGRFTISRDNAKNTVYLQMNSLKPEDTAVYYCAKGYSSHYWWAYDSWGQGTQVTVSS”: the “polyreactivity (PSR sort gate)” value is recorded as “high polyreactivity”.

As for “QVHLVESGGGLVQAGGSLRLICAASVFNLDWYVMGWNRQAPGKERQLVAAISSSGGRTYNADSVKGRFTISRDKAKNTVYLQMNSLKPEDTAVYYCAARNKYGGYPYGYDYWGQGTQVTVSS”, the “polyreactivity (PSR sort gate)” value is recorded as “high polyreactivity”.

For “QVHLVESGGGLVQAGGSLRLRCAASGIIYVRYAMGWYRHAPGKERELVAAISWSGGSTYYADSVKGRFTISRDNAKNTVYLQMNSLKPEDTAVYYCAADSHRTRGYARYFYWGQGTQVTVSS”, the “polyreactivity (PSR sort gate)” value was “high polyreactivity”.

For the sequence “QVHLVESGGGLVQAGGSLRLSCAASARTFTQNAMVWYRQAPGKERELVAAITRSGGSTYYADSVKGRFTISRDYAKNTVYLQMNSLKPEDTAVYYFIKYTHYYDYDYWGQGTQVTVSS”, the “polyreactivity (PSR sort gate)” value is “high polyreactivity”.

Consider “QVHLVESGGGLVQAGGSLRLSCAASASIFGSNAMGWYRQAPGKDRELVAAITWSDGSTYYADSVKGRFTISRDNAKNTVYLQMNSLKPDDTAVYYCSSDYGYSWYDYWGQGTQVTVSS”, for which the “polyreactivity (PSR sort gate)” value is recorded as “low polyreactivity”.

Regarding “QVHLVESGGGLVQAGGSLRLSCAASGFIFPNNAMGWYRQAPGKERELVARISYGGGDTHYADSVKGRFTISRDNAKNTVYLQMNSLKPEDTAVSYCAVKDGQDDYWGQGTQVTVSS”, the “polyreactivity (PSR sort gate)” value is reported as “low polyreactivity”.

For “QVHLVESGGGLVQAGGSLRLSCAASGFIFWGYAMGWYRPAPVHERELVAAISSDGDTYYADSVKGRFTISLDNAKNTVYLQMNCRKPEESAVYYCNADLYGGGDNSVISGLNGEYEYWGQGTQVTVSS”, the “polyreactivity (PSR sort gate)” value is “low polyreactivity”.

As for “QVHLVESGGGLVQAGGSLRLSCAASGFLFDVYAMGWYRQAPGKERELVAAISRSGGSTYYADSVKGRFTISRDNAKNTVYLQMNSLKPEDTAVYYCATDLLNNVDYDYWGQGTQVTVSS”, the “polyreactivity (PSR sort gate)” value was “low polyreactivity”.

Consider “QVHLVESGGGLVQAGGSLRLSCAASGFPFADNAMGWNRQAPGKERELVAAISRRGGSTYYADSVKGRFTISRDNAKNTVYLQMNSLKAEDTAVYYCAALGNRYPYYYYYGSYYPVEYWGQGTQVTVSS”, for which the “polyreactivity (PSR sort gate)” value is reported as “high polyreactivity”.

As to “QVHLVESGGGLVQAGGSLRLSCAASGFTFIRYAMGWYRQAPGKEREFVAAISWRVGITYYADSVKGRFTISRDNAKNTVYLQMNSLKPEDTAVYYCARDYRNPPFAYEYWGQGTQVTVSS”, the “polyreactivity (PSR sort gate)” value is “low polyreactivity”.

Turning to “QVHLVESGGGLVQAGGSLRLSCAASGFTFLVYAMRWYRKAPGKEREFVAAMNWSGDRTYYADSVKGLFTISREYAKNTVYLQMNSVKTEDTAVYYCAAVDYVYPQAYGYWGQGTQVTVSS”, the “polyreactivity (PSR sort gate)” value was “low polyreactivity”.

Take “QVHLVESGGGLVQAGGSLRLSCAASGFTFRRYAMGWDRQAPGKERELVASISSGGSTNYADSVKGRCTISRDNAKNTVYLQMNSLIPEDTAVYYCAVSYRSFRYYWERYYSWGQGTQVTVSS”: the “polyreactivity (PSR sort gate)” value was “high polyreactivity”.

As to “QVHLVESGGGLVQAGGSLRLSCAASGFTIYTYAMGGYRQAPGKERELVAAISSSGGSTSYADSVKGRFTISRDNAKITDYLQMNSLKPDDTALYYCNRGWRQQLGYWGQGTQVNVSS”, the “polyreactivity (PSR sort gate)” value is listed as “high polyreactivity”.

For “QVHLVESGGGLVQAGGSLRLSCAASGFTLYYYMGWYRQAPGKERELVAGISNSGSTSYADSVKGRFTISRDNAKNTVYLQMNSLKPEDTAVYYCNAYYPAWYLDRYYYWGQGTQVTVSS”, the “polyreactivity (PSR sort gate)” value is reported as “high polyreactivity”.

In the case of “QVHLVESGGGLVQAGGSLRLSCAASGGIFPGYAMGRYRKAPGKERELVAAITKRGGRTYYADSVKGRFTISRDNAKNTVYLQMNSLKPEDTAVYYCAADYYAAYHLPDQDYDYWGQGTQVTVSS”, the “polyreactivity (PSR sort gate)” value is listed as “high polyreactivity”.

For “QVHLVESGGGLVQAGGSLRLSCAASGGIFYAYDMGWYRQAPGKERELVAAITWTGGTTYYADSVKGRFTISRDNAKKTVYLLMNSLKPEDTAVYYCAADDGTNSTARDKDDYYYWGQGTEVTVSS”, the “polyreactivity (PSR sort gate)” value was “low polyreactivity”.

Consider “QVHLVESGGGLVQAGGSLRLSCAASGGTDVGYAMGWYRQAPGKEMELDATITRRGGNTYYADSVKGRFTISRDNAKNTVYLQKNSLKPEDTAVYYCAARKKGSRVGYDYWGQGTQVTVSS”, for which the “polyreactivity (PSR sort gate)” value is “high polyreactivity”.

These data come from the nanobody polyreactivity screen of Harvey et al. (2022).
